For one assay, the target named is T1, 4H607-bA.
T1 chain: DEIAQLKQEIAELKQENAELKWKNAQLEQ
Briefly: two-hybrid library CCNG1.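 Also: natural log of median RNA to DNA barcode read ratio; higher means stronger binding.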

The next assay addresses T2, 4H687-bA.
T2 chain: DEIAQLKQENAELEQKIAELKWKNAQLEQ
Kind of assay: two-hybrid library CCNG1.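 Also: natural log of median RNA to DNA barcode read ratio; higher means stronger binding.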

The target in another assay is T3, 4H717-bA.
T3 chain: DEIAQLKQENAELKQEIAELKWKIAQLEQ
Briefly: two-hybrid library CCNG1.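 Also: natural log of median RNA to DNA barcode read ratio; higher means stronger binding.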

The next assay concerns the target T4, 4H72-bA.
T4 chain: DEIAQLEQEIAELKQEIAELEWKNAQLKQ
Kind of assay: two-hybrid library CCNG1.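 Also: natural log of median RNA to DNA barcode read ratio; higher means stronger binding.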

In a further assay the target is T5, 4H754-bA.
T5 chain: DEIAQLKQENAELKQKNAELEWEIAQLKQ
Kind of assay: two-hybrid library CCNG1.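 Also: natural log of median RNA to DNA barcode read ratio; higher means stronger binding.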

The next assay concerns the target T6, 4H797-bA.
T6 chain: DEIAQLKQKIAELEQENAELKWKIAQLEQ
Briefly: two-hybrid library CCNG1.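 Also: natural log of median RNA to DNA barcode read ratio; higher means stronger binding.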

For the next assay, the target named is T7, 4H883-bA.
T7 chain: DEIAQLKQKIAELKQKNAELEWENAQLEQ
Briefly: two-hybrid library CCNG1.

The target of a further assay is T8, 4H908-bA.
T8 chain: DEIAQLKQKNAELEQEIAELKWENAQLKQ
Kind of assay: two-hybrid library CCNG1.

Another assay has as its target T9, 4H918-bA.
T9 chain: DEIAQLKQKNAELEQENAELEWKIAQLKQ
Briefly: two-hybrid library CCNG1.

The target in a further assay is T10, 4H953-bA.
T10 chain: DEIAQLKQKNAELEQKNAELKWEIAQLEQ
Briefly: two-hybrid library CCNG1.

In a further assay the target is T11, 4H953-bH.
T11 chain: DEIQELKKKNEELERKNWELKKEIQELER
Kind of assay: two-hybrid library CCNG1.

Another assay concerns the target T12, 4H967-bA.
T12 chain: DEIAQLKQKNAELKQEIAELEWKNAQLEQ
Briefly: two-hybrid library CCNG1.

Another assay concerns the target T13, 4H3009-AA.
T13 chain: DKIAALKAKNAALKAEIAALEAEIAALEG
Kind of assay: two-hybrid library CCmax.

The target in another assay is T14, 4H3016-AA.
T14 chain: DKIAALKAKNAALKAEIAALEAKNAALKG
Kind of assay: two-hybrid library CCmax. The note with it: mean of both orientations.

A further assay has as its target T15, 4H310-AA.
T15 chain: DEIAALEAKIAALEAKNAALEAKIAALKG
Kind of assay: two-hybrid library CCmax. The settings on record: mean of both orientations.

A further assay addresses T16, 4H3120-AA.
T16 chain: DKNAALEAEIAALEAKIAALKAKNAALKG
Kind of assay: two-hybrid library CCmax. The note with it: mean of both orientations.

Another assay addresses T17, 4H3130-AA.
T17 chain: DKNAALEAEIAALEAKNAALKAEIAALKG
Kind of assay: two-hybrid library CCmax. The note with it: mean of both orientations.

The target of another assay is T18, 4H3165-AA.
T18 chain: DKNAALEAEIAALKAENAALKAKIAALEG
Briefly: two-hybrid library CCmax. The note with it: mean of both orientations.

A further assay addresses T19, 4H3381-AA.
T19 chain: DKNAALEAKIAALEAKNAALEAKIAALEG
Kind of assay: two-hybrid library CCmax. The note with it: mean of both orientations.

The target in a further assay is T20, 4H3395-AA.
T20 chain: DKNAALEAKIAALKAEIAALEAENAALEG
Kind of assay: two-hybrid library CCmax.

The next assay has as its target T21, 4H3410-AA.
T21 chain: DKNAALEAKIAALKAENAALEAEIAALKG
Kind of assay: two-hybrid library CCmax. The note with it: mean of both orientations.

A further assay has as its target T22, 4H3590-AA.
T22 chain: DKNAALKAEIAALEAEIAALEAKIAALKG
Briefly: two-hybrid library CCmax. The note with it: mean of both orientations.

A further assay concerns the target T23, 4H3697-AA.
T23 chain: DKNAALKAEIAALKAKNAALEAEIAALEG
Kind of assay: two-hybrid library CCmax. The note with it: mean of both orientations.

The next assay addresses T24, 4H3753-AA.
T24 chain: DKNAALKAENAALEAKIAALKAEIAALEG
Briefly: two-hybrid library CCmax. The note with it: mean of both orientations.

The next assay has as its target T25, 4H3865-AA.
T25 chain: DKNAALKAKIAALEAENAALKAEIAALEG
Kind of assay: two-hybrid library CCmax. The note with it: mean of both orientations.

A further assay addresses T26, 4H458-AA.
T26 chain: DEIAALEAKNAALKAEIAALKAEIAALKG
Briefly: two-hybrid library CCmax. The settings on record: mean of both orientations.

The target in a further assay is T27, 4H485-AA.
T27 chain: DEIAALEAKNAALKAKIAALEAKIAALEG
Briefly: two-hybrid library CCmax. The settings on record: mean of both orientations.

The target of the next assay is T28, 4H536-AA.
T28 chain: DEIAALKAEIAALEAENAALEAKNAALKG
Briefly: two-hybrid library CCmax. The note with it: mean of both orientations.

The target of another assay is T29, 4H570-AA.
T29 chain: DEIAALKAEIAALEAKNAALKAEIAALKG
Kind of assay: two-hybrid library CCmax. The settings on record: mean of both orientations.

Another assay concerns the target T30, 4H629-AA.
T30 chain: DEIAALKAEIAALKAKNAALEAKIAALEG
Kind of assay: two-hybrid library CCmax. The settings on record: mean of both orientations.

In another assay the target is T31, 4H710-AA.
T31 chain: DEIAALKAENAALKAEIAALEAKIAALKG
Briefly: two-hybrid library CCmax. The settings on record: mean of both orientations.

The next assay deals with T32, 4H745-AA.
T32 chain: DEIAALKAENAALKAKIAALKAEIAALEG
Briefly: two-hybrid library CCmax. The note with it: mean of both orientations.

In another assay the target is T33, 4H797-AA.
T33 chain: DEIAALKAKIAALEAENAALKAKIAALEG
Briefly: two-hybrid library CCmax. The note with it: mean of both orientations.

For the next assay, the target named is T34, 4H850-AA.
T34 chain: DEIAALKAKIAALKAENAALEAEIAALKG
Briefly: two-hybrid library CCmax. The settings on record: mean of both orientations.

In another assay the target is T35, 4H891-AA.
T35 chain: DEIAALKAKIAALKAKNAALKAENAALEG
Kind of assay: two-hybrid library CCmax.

In the next assay the target is T36, 4H909-AA.
T36 chain: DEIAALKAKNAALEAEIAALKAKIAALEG
Kind of assay: two-hybrid library CCmax. The note with it: mean of both orientations.

Another assay concerns the target T37, 4H930-AA.
T37 chain: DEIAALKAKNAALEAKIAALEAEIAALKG
Briefly: two-hybrid library CCmax. The note with it: mean of both orientations.

In the next assay the target is T38, 4H94-AA.
T38 chain: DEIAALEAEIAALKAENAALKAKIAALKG
Kind of assay: two-hybrid library CCmax. The settings on record: mean of both orientations.

The target of another assay is T39, 4H949-bN.
T39 chain: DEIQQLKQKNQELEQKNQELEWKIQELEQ
Briefly: two-hybrid library CCNG1.

The next assay addresses T40, 4H932-bN.
T40 chain: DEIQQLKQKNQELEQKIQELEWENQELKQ
Briefly: two-hybrid library CCNG1.

Another assay addresses T41, 4H949-bA.
T41 chain: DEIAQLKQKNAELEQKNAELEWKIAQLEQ
Briefly: two-hybrid library CCNG1.

A further assay has as its target T42, 4H3413-AA.
T42 chain: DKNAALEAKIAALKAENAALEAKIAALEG
Briefly: two-hybrid library CCmax.

In a further assay the target is T43, 4H3588-AA.
T43 chain: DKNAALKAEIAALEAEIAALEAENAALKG
Briefly: two-hybrid library CCmax. The note with it: mean of both orientations.

Another assay has as its target T44, 4H3606-AA.
T44 chain: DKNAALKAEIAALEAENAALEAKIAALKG
Briefly: two-hybrid library CCmax. The settings on record: mean of both orientations.

Another assay deals with T45, 4H3631-AA.
T45 chain: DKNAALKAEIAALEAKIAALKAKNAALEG
Kind of assay: two-hybrid library CCmax. The settings on record: mean of both orientations.

The target in the next assay is T46, 4H3718-AA.
T46 chain: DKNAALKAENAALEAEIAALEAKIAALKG
Kind of assay: two-hybrid library CCmax. The note with it: mean of both orientations.

For a further assay, the target named is T47, 4H384-AA.
T47 chain: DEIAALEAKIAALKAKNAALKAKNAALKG
Kind of assay: two-hybrid library CCmax. The note with it: mean of both orientations.

A further assay concerns the target T48, 4H697-AA.
T48 chain: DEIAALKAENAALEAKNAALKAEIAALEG
Kind of assay: two-hybrid library CCmax. The settings on record: mean of both orientations.

Another assay has as its target T49, 4H982-AA.
T49 chain: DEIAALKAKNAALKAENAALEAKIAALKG
Kind of assay: two-hybrid library CCmax. The settings on record: mean of both orientations.

B1: 4H607-bA (peptide)
chain: DEIAQLKQEIAELKQENAELKWKNAQLEQ
Consider B1, for which the interaction score was 0.454 with 4H607-bA; -0.84 in the assay with 4H687-bA; -0.469 in the assay with 4H717-bA; -0.746 with 4H72-bA; -0.503 in the assay with 4H754-bA; -0.394 with 4H797-bA. In addition, the interaction score with 4H883-bA was -1.28; in the assay with 4H908-bA, -0.62; with 4H918-bA it was -1.07; in the assay with 4H953-bA, -0.667; with 4H953-bH, -1.41; with 4H967-bA it was -1.29.

B2: 4H3009-AA (peptide)
chain: DKIAALKAKNAALKAEIAALEAEIAALEG
For B2, the interaction score in the assay with 4H3009-AA was 2.25; in the assay with 4H3016-AA, -1.16; with 4H310-AA, -0.567; with 4H3120-AA it was -0.531; with 4H3130-AA it was -0.967; with 4H3165-AA, -1.43. Also, the interaction score with 4H3381-AA was -1.54; with 4H3395-AA, -1.73; with 4H3410-AA, 0.321; with 4H3590-AA, 0.389; with 4H3697-AA, 0.129; in the assay with 4H3753-AA, 1.09. In addition, the interaction score with 4H3865-AA is -1.6; with 4H458-AA, 0.956; in the assay with 4H485-AA, 1.22; with 4H536-AA, -1.35; with 4H570-AA, -0.427; with 4H629-AA, 1.67. Besides, the interaction score in the assay with 4H710-AA was 1.94; in the assay with 4H745-AA, 1.77; with 4H797-AA, -1.65; with 4H850-AA, 1.63; with 4H891-AA, -1.57; in the assay with 4H909-AA, 0.523. Further, the interaction score was -0.0462 with 4H930-AA and -0.794 in the assay with 4H94-AA.

B3: 4H717-bA (peptide)
chain: DEIAQLKQENAELKQEIAELKWKIAQLEQ
For the molecule B3, the interaction score is 0.924 with 4H717-bA; 0.154 in the assay with 4H72-bA; -0.36 with 4H754-bA; -1.13 in the assay with 4H797-bA; -1.09 with 4H883-bA; 0.244 with 4H908-bA. Moreover, the values for the interaction score with 4H918-bA, with 4H953-bA and in the assay with 4H967-bA were -0.185, -0.433 and -0.574, respectively.

B4: 4H949-bN (peptide)
chain: DEIQQLKQKNQELEQKNQELEWKIQELEQ
As for B4, the interaction score with 4H949-bN was -0.614.

B5: 4H932-bN (peptide)
chain: DEIQQLKQKNQELEQKIQELEWENQELKQ
As for B5, the interaction score was 1.01 with 4H932-bN and -1.08 with 4H949-bN.

B6: 4H949-bA (peptide)
chain: DEIAQLKQKNAELEQKNAELEWKIAQLEQ
The molecule B6 registered an interaction score with 4H949-bA of -0.253.

B7: 4H3413-AA (peptide)
chain: DKNAALEAKIAALKAENAALEAKIAALEG
B7: the interaction score was 0.362 in the assay with 4H3413-AA; -1.34 with 4H3588-AA; 1.14 in the assay with 4H3606-AA; -1.19 with 4H3631-AA; -0.722 in the assay with 4H3697-AA; -1.38 in the assay with 4H3718-AA. The interaction score in the assay with 4H384-AA was -0.506; in the assay with 4H3865-AA it was 0.0208; with 4H697-AA, -0.828; in the assay with 4H982-AA, -1.39.

The values above are taken from article PMC10397247.
